For the experiment, the target named is microtubules of Xenopus S3 cells stably expressing EGFP-α-tubulin (Xenopus laevis (endogenous in S3 cells); cDNA of the EGFP-tagged copy not stated | Xenopus laevis (endogenous in S3 cells)). The experiment can be described thus: fluorescence molecule counting on microtubules in cells.

B1: mCherryFP-TgDCX (full-length wild-type TgDCX, mCherryFP at the N-terminus) (natural protein)
chain: MACGIPWKLARRDELMATRQAERPGEYFPPPYPPCPPTVVTPLRTSAYDFPEATFVTRPCLPAKKATGHKNVFERLTDTAYYTGSHRERFDEFGNGRGIAGREYLYAYDGLTESPSRCHEVYSSVIKRPRKPVVTPGTLGIQRFGVQIPAPRLMWLYRNGDKHDDGTPFFVRPYIKSMESLYQQITKEITPIAGPVRRIFDQNFRVITDLDDIVDGAKYLCTSGEPPAAYDRLEKFLSEWVIQKSQTKVPSQFFVV
As for B1, the DCX molecules per micron (short, smoothly curved microtubule arcs) (molecules per micron) was found to be 4850; the TgDCX molecules per micron of fiber length ("flexible" microtubules) (molecules per micron) stood at 1460; the stoichiometry N (TgDCX molecules per tubulin dimer) was 0.9.

The values are drawn from publication PMC7048138.
